From publication PMC9328939, “A Randomized Double‐Blind Placebo‐Controlled First‐In‐Human Phase 1 Trial of TransCon PTH in Healthy Adults” (Journal of Bone and Mineral Research, 2020)
Several values for one entry are separate records, joined by “and”; a condition that tells them apart may be missing. Identical values can stand only once.

Assays:
healthy adults [1] = test: Pharmacodynamics: bone turnover markers (serum BSAP, P1NP, CTx; urine NTx); type: in vivo, human; conditions: MAD
Method: (§1) The PD endpoints included albumin‐adjusted sCa, fractional excretion of calcium, sP, renal tubular maximum reabsorption of phosphate/glomerular filtration rate (TMP/GFR), intact endogenous PTH(1‐84), osteoblastic bone formation markers (serum bone‐specific alkaline phosphatase [BSAP] and P1NP), osteoclastic bone resorption markers (urine NTx and serum CTx), sMg, and 1,25‐dihydroxyvitamin D. PK samples were collected predose and at regular intervals postdose through 96 hours for the SAD cohorts and through day14 for the MAD cohorts.

healthy adults [2] = test: Pharmacodynamics: albumin-adjusted serum calcium (sCa); type: in vivo, human
Method: (§2) Subjects attended a screening visit; those who met eligibility criteria were randomly assigned to a SAD or MAD cohort (n = 10/cohort; eight active and two placebo) and received a single or multiple dose(s) of TransCon PTH, respectively, via a syringe and 31G 8‐mm needle s.c. to the abdomen. […] Multiple TransCon PTH doses administered daily for 10 days ranged from 3.5 to 24 μg PTH(1‐34)/day. Throughout drug administration and for 4 days following the final dose, subjects remained housed for laboratory tests and safety monitoring.
as §1
Safety and PD samples were collected and analyzed by a local laboratory (SydPath Clinical Trials, Darlinghurst, Australia).

healthy adults [3] = test: Pharmacodynamics: renal tubular maximum reabsorption of phosphate/GFR (TMP/GFR); type: in vivo, human; conditions: MAD cohorts, near steady-state (days 8 to 10); linear regression on dose, p = .0022
Method: The ratio, TMP/GFR is based on sP, urine phosphate (uP), serum creatinine (sCr), and urine creatinine (uCr) and was calculated as follows[18]: (2) TMP/GFR=sP–uPxsCr/uCr
All statistical analyses were performed using SAS 9.3 or higher (SAS Institute, Inc., Cary, NC, USA). Summary statistics were reported for continuous data, including mean, standard deviation, standard error, median, minimum, and maximum, whereas number and percentage of subjects within treatment groups were reported for categorical data. For sP and TMP/GFR, a linear regression model was performed for the change from baseline, with dose and baseline as independent variables at near steady‐state. Near steady‐state was defined as the average of predose values on day 8, 9, and 10. Dose was defined as a continuous variable where placebo was considered zero.

healthy adults [4] = test: Safety and tolerability: adverse events in SAD and MAD cohorts; conditions: for Dizziness, light-headedness (including postural/orthostatic dizziness, syncope, presyncope) (%) / Tachycardia/palpitations (%): at least possibly related
Method: as §2
At screening, demographic information, medical history, and concomitant medications, vital signs with height and weight, hematology, blood chemistry (including sCa, sP, and sMg), intact endogenous PTH(1‐84), 1,25‐dihydroxyvitamin D, and urine samples were collected. In addition, a limited physical examination and electrocardiogram (ECG) were performed.
Via regular vital sign checks, physical examinations, and safety laboratory tests, subjects were also monitored for adverse events (AEs) throughout the trial, including injection site reactions (erythema, ecchymosis, edema, pruritus, and pain).

[5] = MAD cohorts administered TransCon PTH (n = 50)
[6] = MAD, 3.5 μg/day s.c. x 10 days, n = 8, number of subjects (% of cohort)
[7] = MAD, 3.5 μg/day x 10 days, n = 8, number of subjects (%)
[8] = MAD, 7 μg/day s.c. x 10 days, n = 8, number of subjects (% of cohort)
[9] = MAD, 7 μg/day x 10 days, n = 8, number of subjects (%)
[10] = MAD, 12 μg/day s.c. x 10 days, n = 10, number of subjects (% of cohort)
[11] = MAD, 16 μg/day s.c. x 10 days, n = 8, number of subjects (% of cohort)
[12] = MAD, 16 μg/day x 10 days, n = 8, number of subjects (%)
[13] = MAD, 20 μg/day s.c. x 10 days, n = 8, number of subjects (% of cohort)
[14] = MAD, 20 μg/day x 10 days, n = 8, number of subjects (%)
[15] = MAD, 24 μg/day s.c. x 10 days, n = 8, number of subjects (% of cohort)
[16] = MAD, 24 μg/day x 10 days, n = 8, number of subjects (%)
[17] = MAD, Total of all TransCon PTH doses (3.5 to 24 μg/day), n = 50, number of subjects (%)
[18] = MAD, Total of all TransCon PTH doses, n = 50, number of subjects (%)

Question: Which results are given for “TransCon PTH: long-acting, essentially inactive prodrug: PTH(1-34) transiently bound to an inert 40 kDa mPEG carrier via a proprietary autocleaving linker”?
Answer: serum BSAP (osteoblastic bone formation marker) (healthy adults [1]; 10 days of administration, compared to placebo): neither the osteoblastic bone formation marker, BSAP (Fig. 8) or P1NP (data not shown), increased; P1NP (osteoblastic bone formation marker) (healthy adults [1]; 10 days of administration, compared to placebo, data not shown): neither the osteoblastic bone formation marker, BSAP (Fig. 8) or P1NP (data not shown), increased; time course of serum CTx levels (healthy adults [1]; Free PTH at steady-state until at least day 11): declined from day 8 to baseline by day 13; serum CTx (osteoclastic bone resorption marker) (healthy adults [1]; over 10 days of administration, compared to placebo): increased modestly; urine NTx (osteoclastic bone resorption marker) (healthy adults [1]; over 10 days, data not shown): no consistent increase; albumin-adjusted sCa on day 11 (healthy adults [2]; MAD, 24 μg PTH(1-34)/day x 10 days, n = 8, mean (± SD as printed), baseline 9.60 ± 0.06): 10.63 ± 0.22 mg/dL; albumin-adjusted sCa on day 2 (healthy adults [2]; SAD, single s.c. 124 μg PTH(1-34), n = 8, mean ± SD as printed, baseline 9.43 ± 0.09): 10.97 ± 0.20 mg/dL; change in TMP/GFR from baseline (healthy adults [3]): significant dose‐dependent decrease; treatment-emergent AE: catheter site phlebitis (healthy adults [4]; [5]): 8%; treatment-emergent AE: dizziness (healthy adults [4]; [5]): 10%; treatment-emergent AE: headache (healthy adults [4]; [5]): 12%; treatment-emergent AE: musculoskeletal pain (healthy adults [4]; [5]): 6%; treatment-emergent AE: palpitations (healthy adults [4]; [5]): 8%; treatment-emergent AE: postural dizziness (healthy adults [4]; [5]): 6%; treatment-emergent AE: presyncope (healthy adults [4]; [5]): 6%; Any AE (%) (healthy adults [4]; [6]): 6 (75.0) %; Any SAE (%) (healthy adults [4]; [6]): 0 (0) %; Any drug-related AE (%) (healthy adults [4]; [6]): 1 (12.5) %; Any moderate or severe AE (%) (healthy adults [4]; [6]): 2 (25.0) %; Dizziness, light-headedness (including postural/orthostatic dizziness, syncope, presyncope) (%) (healthy adults [4]; [7]): 1 (12.5) %; Tachycardia/palpitations (%) (healthy adults [4]; [7]): 1 (12.5) %; Any AE (%) (healthy adults [4]; [8]): 6 (75.0) %; Any SAE (%) (healthy adults [4]; [8]): 0 (0) %; Any drug-related AE (%) (healthy adults [4]; [8]): 2 (25.0) %; Any moderate or severe AE (%) (healthy adults [4]; [8]): 3 (37.5) %; Dizziness, light-headedness (including postural/orthostatic dizziness, syncope, presyncope) (%) (healthy adults [4]; [9]): 1 (12.5) %; Tachycardia/palpitations (%) (healthy adults [4]; [9]): 0 (0.0) %; Any AE (%) (healthy adults [4]; [10]): 7 (70.0) %; Any SAE (%) (healthy adults [4]; [10]): 1 (10.0) %; Any drug-related AE (%) (healthy adults [4]; [10]): 3 (30.0) %; Any moderate or severe AE (%) (healthy adults [4]; [10]): 2 (20.0) %; Tachycardia/palpitations (%) (healthy adults [4]; MAD, 12 μg/day x 10 days, n = 10, number of subjects (%)): 0 (0.0) %; Any AE (%) (healthy adults [4]; [11]): 4 (50.0) %; Any SAE (%) (healthy adults [4]; [11]): 0 (0) %; Any drug-related AE (%) (healthy adults [4]; [11]): 2 (25.0) %; Any moderate or severe AE (%) (healthy adults [4]; [11]): 1 (12.5) %; Dizziness, light-headedness (including postural/orthostatic dizziness, syncope, presyncope) (%) (healthy adults [4]; [12]): 0 (0.0) %; Tachycardia/palpitations (%) (healthy adults [4]; [12]): 0 (0.0) %; Any AE (%) (healthy adults [4]; [13]): 3 (37.5) %; Any SAE (%) (healthy adults [4]; [13]): 0 (0) %; Any drug-related AE (%) (healthy adults [4]; [13]): 2 (25.0) %; Any moderate or severe AE (%) (healthy adults [4]; [13]): 1 (12.5) %; Dizziness, light-headedness (including postural/orthostatic dizziness, syncope, presyncope) (%) (healthy adults [4]; [14]): 0 (0.0) %; Tachycardia/palpitations (%) (healthy adults [4]; [14]): 1 (12.5) %; subjects reporting vasodilatory or potentially vasodilatory AEs (healthy adults [4]; MAD, 24 μg PTH(1-34)/day cohort, four of eight, placebo two of two (100%)): 50%; albumin-adjusted sCa in a subject with symptomatic hypercalcemia (healthy adults [4]; MAD, 24 μg PTH(1-34)/day, one of three males, discontinued dosing after the sixth dose): 11.68 mg/dL; albumin-adjusted sCa in an asymptomatic subject on day 11 (healthy adults [4]; MAD, 24 μg PTH(1-34)/day, single subject): 11.76 mg/dL; Any AE (%) (healthy adults [4]; [15]): 7 (87.5) %; Any SAE (%) (healthy adults [4]; [15]): 0 (0) %; Any drug-related AE (%) (healthy adults [4]; [15]): 6 (75.0) %; Any moderate or severe AE (%) (healthy adults [4]; [15]): 5 (62.5) %; Dizziness, light-headedness (including postural/orthostatic dizziness, syncope, presyncope) (%) (healthy adults [4]; [16]): 2 (25.0) %; Tachycardia/palpitations (%) (healthy adults [4]; [16]): 3 (37.5) %; Any AE (%) (healthy adults [4]; [17]): 66% and 33 (66.0) %; Any SAE (%) (healthy adults [4]; [17]): 1 (2.0) %; Any drug-related AE (%) (healthy adults [4]; [17]): 16 (32.0) %; Any moderate or severe AE (%) (healthy adults [4]; [17]): 14 (28.0) %; Dizziness, light-headedness (including postural/orthostatic dizziness, syncope, presyncope) (%) (healthy adults [4]; [18]): 5 (10.0) %; Tachycardia/palpitations (%) (healthy adults [4]; [18]): 5 (10.0) %
